B1: F(ab')2 -Au11: F(ab')2 -Au11 conjugate of 17-1A mouse monoclonal antibody specific for human colorectal tumors (conjugate, chains of the INN, looked up)
VH: QVQLQQSGAELVRPGTSVKVSCKASGYAFTNYLIEWVKQRPGQGLEWIGVINPGSGGTNYNEKFKGKATLTADKSSSTAYMQLSSLTSDDSAVYFCARDGPWFAYWGQGTLVTVSA
VL: NIVMTQSPKSMSMSVGERVTLTCKASENVVTYVSWYQQKPEQSPKLLIYGASNRYTGVPDRFTGSGSATDFTLTISSVQAEDLADYHCGQGYSYPYTFGGGTKLEIK
modifications: F(ab')2 undecagold cluster label
notes: F(ab')2 -Au11 conjugate of 17-1A mouse monoclonal antibody specific for human colorectal tumors
B2: IgG-Au11: 17-1A whole IgG labeled with monomaleimidopropyl undecagold cluster, about 2 Au clusters per IgG (conjugate, chains of the INN, looked up)
VH: QVQLQQSGAELVRPGTSVKVSCKASGYAFTNYLIEWVKQRPGQGLEWIGVINPGSGGTNYNEKFKGKATLTADKSSSTAYMQLSSLTSDDSAVYFCARDGPWFAYWGQGTLVTVSA
VL: NIVMTQSPKSMSMSVGERVTLTCKASENVVTYVSWYQQKPEQSPKLLIYGASNRYTGVPDRFTGSGSATDFTLTISSVQAEDLADYHCGQGYSYPYTFGGGTKLEIK
modifications: undecagold cluster label
notes: 17-1A whole IgG labeled with monomaleimidopropyl undecagold cluster, about 2 Au clusters per IgG
B3: undecagold cluster-labeled 17-1A monoclonal antibody: undecagold cluster-labeled 17-1A monoclonal antibody (conjugate, chains of the INN, looked up)
VH: QVQLQQSGAELVRPGTSVKVSCKASGYAFTNYLIEWVKQRPGQGLEWIGVINPGSGGTNYNEKFKGKATLTADKSSSTAYMQLSSLTSDDSAVYFCARDGPWFAYWGQGTLVTVSA
VL: NIVMTQSPKSMSMSVGERVTLTCKASENVVTYVSWYQQKPEQSPKLLIYGASNRYTGVPDRFTGSGSATDFTLTISSVQAEDLADYHCGQGYSYPYTFGGGTKLEIK
modifications: undecagold cluster label

Experiments:
[1] = Thermal stability of gold clusters; format: physicochemical
[2] = tested on: human colon carcinoma cells (LS180); assay: In vitro cell binding of 17-1A-Au11 conjugates, human colon carcinoma (radioactivity of gold); settings: percent of applied radioactive gold bound after incubation and washing; average ± s.d. of 2 samples
Experimental: (§3) The 17-1A Fab' fragment-(radioactive gold)-undecagold cluster conjugate was incubated in vitro with tumor cells (LS180- a cell culture of human colon carcinoma) and non tumor cells (WM164 - a cell culture of melanoma as control) and the radioactivity of the gold was used to assay binding.
(§4) bound to cells after incubation and washing.
(§5) entry is an average (+ s.d.) of 2 samples.

[3] = tested on: human colon carcinoma cells; assay: Radioimmunoassay, cell binding of gold labeled F(ab')2 to cultured human colon carcinoma cells; format: cell-based; settings: 17-1A; in words
Experimental: (§1) Both of these methods were used to prepare F(ab')2 -Au11 conjugates using 17-1A mouse monoclonal antibody which is specific for human colorectal tumors. After preparation, this labeled antibody was tested to find if its immunoreactivity had been altered. A radioimmunoassay was performed using cell binding to cultured human colon carcinoma cells and to melanoma cells (the control).

[4] = tested on: melanoma cells; assay: Radioimmunoassay, cell binding of gold labeled F(ab')2 to melanoma cells (control); format: cell-based; settings: 17-1A; in words
Experimental: as §1

[5] = tested on: human colon carcinoma; assay: In vivo biodistribution of radiogold cluster 17-1A conjugates in nude mice bearing human tumors; settings: 24 hr after injection; for blood, % of injected dose per gram of tissue / bone, % of injected dose per gram of tissue / gut, % of injected dose per gram of tissue / heart, % of injected dose per gram of tissue / kidneys, % of injected dose per gram of tissue / liver, % of injected dose per gram of tissue / lung, % of injected dose per gram of tissue / muscle, % of injected dose per gram of tissue / spleen, % of injected dose per gram of tissue / stomach, % of injected dose per gram of tissue / tumor, % of injected dose per gram of tissue: normalized to 25 g animals
Experimental: Nude mice bearing human colon carcinoma or melanoma tumors were injected with radioactive gold clusters conjugated to anti-tumor antibodies. Two antibodies were gold labeled, one (17-1A) against the human colon carcinoma and another non-relevant antibody, H2 4B5 anti-influenza. The non-relevant tumor (melanoma) and non-relevant gold conjugated antibody (H2 4B5) served as controls. A total of 53 mice were used. In order to assess the efficacy of using gold labeled Fab' versus whole IgG, both types of antibody were labeled and tested. In addition, two crosslinking arms between the gold cluster and antibody were used, one, as described in the preparation example, was N-methoxycarbonyl maleimide (NMCM), whereas the other was n-maleimidobenzoyl-N-hydroxysuccinimide ester (MBS), This was to test if a different covalent crosslinker between the gold cluster and antibody or antibody fragment yielded conjugates with different stabilities or body distributions in vivo.
In vivo biodistribution of radiogold cluster 17-1A conjugates. Data,
after injection is expressed in % of injected dose per gram of tissue.
Tumor to normal tissue ratios are given in parentheses. Three or four
sample were averaged; normalized to 25 g animals.

[6] = tested on: melanoma cells (WM164); assay: In vitro cell binding of 17-1A-Au11 conjugates, control melanoma (radioactivity of gold); settings: for % bound to control cells (melanoma): percent of applied radioactive gold bound after incubation and washing, average ± s.d. of 2 samples
Experimental: as §3, §4, §5

[7] = tested on: Human colon carcinoma cells (cell line LS180); assay: Silver enhanced staining of human colon carcinoma cells, light microscope; format: cell-based; settings: approximately 45 minutes developer
Experimental: Human colon carcinoma cells (cell line LS180) were grown in tissue culture media. The cells were harvested with a brief trypsin treatment and centrifuged. They were then resuspended in phosphate buffered saline with 5% IgG free horse serum.
(§2) Assuming each call has approx. 10^6 antibody binding sites, a ten fold molar excess over this of undecagold cluster-labeled 17-1A monoclonal antibody was applied. Cells were incubated at room temperature for one hour on a wrist shaker device. The cells were then centrifuged at 1100 rpm for 5 minutes and the supernatent discarded. Additional buffer was added to resuspend the cells and after 3 minutes they were centrifuged again. Three of these washes were done. As a control, melanoma cells (cell line WM 164) were also prepared in a similar fashion. Cells were concentrated onto glass microscope slides using a Cytospin device. […] UV exposure for 5 minutes prior to development enhanced this color.

[8] = tested on: melanoma cells (cell line WM 164); assay: Silver enhanced staining of control melanoma cells, light microscope; format: cell-based; settings: approximately 45 minutes developer
Experimental: as §2

Row | Molecule | % bound to tumor cells (human colon carcinoma) [2] | Tumor to normal tissue ratio, blood [5] | Tumor to normal tissue ratio, bone [5] | Tumor to normal tissue ratio, gut [5] | Tumor to normal tissue ratio, heart [5] | Tumor to normal tissue ratio, kidneys [5] | Tumor to normal tissue ratio, liver [5] | Tumor to normal tissue ratio, lung [5] | Tumor to normal tissue ratio, muscle [5] | Tumor to normal tissue ratio, spleen [5] | Tumor to normal tissue ratio, stomach [5] | blood, % of injected dose per gram of tissue [5] | bone, % of injected dose per gram of tissue [5] | gut, % of injected dose per gram of tissue [5] | heart, % of injected dose per gram of tissue [5] | kidneys, % of injected dose per gram of tissue [5] | liver, % of injected dose per gram of tissue [5] | lung, % of injected dose per gram of tissue [5] | muscle, % of injected dose per gram of tissue [5] | spleen, % of injected dose per gram of tissue [5] | also measured
1 | Au55 [P(PhCONHCH3)3 ]11 P(PhCONHCH3)2 [derivatized Au55 cluster, Au55 [P(PhCONHCH3)3 ]11 P(PhCONHCH3)2 [PhCONH(CH2)3 N(CO)2 (CH)2 ]] | – | – | – | – | – | – | – | – | – | – | – | – | – | – | – | – | – | – | – | – | temperature above which the cluster deteriorates rapidly [1]: above 70 °C
2 | B1 | 16.13 ± 0.02% | 1.5 | 3.5 | 5.3 | 3.4 | 0.1 | 0.8 | 1.8 | 8.6 | 1.3 | 9.1 | 5.6 ± 0.4 % of injected dose per gram of tissue | 2.4 ± 0.2 % of injected dose per gram of tissue | 1.6 ± 0.2 % of injected dose per gram of tissue | 3.2 ± 0.4 % of injected dose per gram of tissue | 117.0 ± 20 % of injected dose per gram of tissue | 10.5 ± 0.4 % of injected dose per gram of tissue | 4.6 ± 0.1 % of injected dose per gram of tissue | 0.98 ± 0.08 % of injected dose per gram of tissue | 6.4 ± 0.8 % of injected dose per gram of tissue | binding to the tumor cells versus native unlabeled F(ab')2 [3]: virtually identical binding to the tumor cells as did native unlabeled F(ab')2; binding to the control cells [4]: no binding to the control cells; stomach, % of injected dose per gram of tissue [5]: 0.93 ± 0.19 % of injected dose per gram of tissue; tumor, % of injected dose per gram of tissue [5]: 8.4 ± 0.6 % of injected dose per gram of tissue; radioactive gold on the non-tumor cells ([6]; WM164, text statement on Table 1, "or background for F(ab')2"): < 0.4%; % bound to control cells (melanoma) [6]: 0.30 ± 0.03%
3 | B2 | 14.32 ± 0.92% | 2.5 | 3.6 | 7.2 | 3.1 | 0.5 | 1.7 | 2.3 | 10.0 | 0.8 | 11.6 | 3.2 ± 0.6 % of injected dose per gram of tissue | 2.2 ± 0.3 % of injected dose per gram of tissue | 1.1 ± 0.3 % of injected dose per gram of tissue | 2.6 ± 0.4 % of injected dose per gram of tissue | 17.1 ± 3.1 % of injected dose per gram of tissue | 4.6 ± 0.7 % of injected dose per gram of tissue | 3.4 ± 0.9 % of injected dose per gram of tissue | 0.80 ± 0.23 % of injected dose per gram of tissue | 9.5 ± 0.3 % of injected dose per gram of tissue | stomach, % of injected dose per gram of tissue [5]: 0.69 ± 0.20 % of injected dose per gram of tissue; tumor, % of injected dose per gram of tissue [5]: 8.0 ± 3.2 % of injected dose per gram of tissue; % bound to control cells (melanoma) [6]: 0.77 ± 0.08%
4 | B3 | – | – | – | – | – | – | – | – | – | – | – | – | – | – | – | – | – | – | – | – | staining of cells after silver developer [7]: became brown in color, easily identifiable in the light microscope; staining of control cells after silver developer [8]: clear and showed virtually no staining

— patent US5360895A, “Derivatized gold clusters and antibody-gold cluster conjugates” (priority 1992, dated 1994)
